# Measured values from patent US20090136500A1.
# B1: murine monoclonal antibody 33B8 (antibody, V domains shown)
# VH: QIQLVQSGPELKKPGKTVTISCKASGYTFTNYGMNWVKQAPGKGLKWMGWINTYTGEPTYTDDFKGRFAFSLDTSASTAYLQISNLKNEDTATYFCAKDVSGFVFDYWGQGTTVTVSS
# VL: DIVMTQSPSSLAVSVGEKVTMSCKSSQSLLNIIKQKNCLAWYQQKPGQSPKLLIYWASTRESGVPDRFTGSGSGTDFTLTISSVKAEDLAVYYCQQYYSYPYTFGGGTKLEIK
# What was measured:
# [1] = biological target: PAI-1 (antigen of Example 11, species not stated); assay: SPR-type biosensor, 25 C, global 1:1 fit (format for mP-1 not given)
# [2] = biological target: PAI-1 (immobilized antigen of the P-ELISA of Figure 13, species not stated); assay: P-ELISA on immobilized biotin-labeled PAI-1 (species not stated), antibody with EDTA, A450
# Sequence of PAI-1 (immobilized antigen of the P-ELISA of Figure 13, species not stated) (P05121 24-402): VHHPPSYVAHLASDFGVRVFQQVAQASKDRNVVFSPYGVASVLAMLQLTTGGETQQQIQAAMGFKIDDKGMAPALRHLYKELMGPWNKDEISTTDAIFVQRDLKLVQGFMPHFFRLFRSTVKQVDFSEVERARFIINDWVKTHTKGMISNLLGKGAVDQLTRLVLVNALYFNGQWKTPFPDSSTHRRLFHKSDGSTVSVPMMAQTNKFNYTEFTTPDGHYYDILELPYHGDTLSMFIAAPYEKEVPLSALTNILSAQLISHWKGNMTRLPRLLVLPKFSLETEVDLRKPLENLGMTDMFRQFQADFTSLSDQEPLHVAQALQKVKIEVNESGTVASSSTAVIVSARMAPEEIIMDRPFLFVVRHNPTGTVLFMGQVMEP
# Sequence of PAI-1 (antigen of Example 11, species not stated) (P05121 24-402): as above
binder,measurement,setting,value
B1,Kd,[1],8.01 nM
same,koff,[1],0.00314 s⁻¹
same,kon,[1],393000 M⁻¹ s⁻¹
same,EC50 (read off the curve),[2],0.1 µg/mL
